Tests used:
IL-6 = IL-6 production by retrovirally transduced wt and XBP-1-/- B cells (ELISA, Northern blot); format: cell-based, murine; conditions: for secretion of IL-6 compared to control cells: LPS 72 h
Description: Assays to measure immunoglobulin or cytokine levels in culture supernatants were performed as described (e.g., Hodge et al., 1996 Immunity. 4:397-405 or Science. 1996 274:1903-5).
The XBP-1 cDNAs for the unspliced (XBP-1u/s) and the spliced (XBP-1s) forms were PCR-amplified from the total RNA of untreated and tunicamycin treated NIH3T3 cells, respectively, with a primer set (5′-[…]-3′ (SEQ ID NO: 7) and 5′-[…]-3′) (SEQ ID NO: 8). XBP-1u form was generated by a PCR-based mutagenesis from XBP-unspliced/s cDNA so that the two G residues at position 532 and 535 were changed to A without changing amino acid sequences in the XBP-1u open reading frame. Numbers are based on the sequences from gene bank database (NM_013842 [gi:13775155]). These XBP-1 cDNAs were inserted into the GFP-RV retroviral vector by using blunt end ligation (Sambrook et al., 1989). EFFECTENE transfection (Quiagen) was used to introduce the DNA into the Phoenix cell line as described by manufacturer (e.g., Reimold et al., 2001 Nature. 412:300-7 or Int Immunol. 2001 13:241-8). Viral supernatants were harvested after 48 hours and frozen at −80° C. for later use. B cells were purified from mouse spleens using CD43 depletion or positive selection with B220+ magnetic beads as described by the manufacturer (MidiMacs, Miltenyi Biotech). B cell purity was generally near 95% as confirmed by flow cytometry. The B cells (10^6 cells /ml) were then activated in culture with LPS 10 μg/ml and F (ab′)2 anti-IgM (5 μg/ml Southern Biotechnology Associates Inc.) for 24 hours. The 1 ml of activated B cells (10^6 cells/ml) were mixed with 4 μg of polybrene and 1 ml of virus-containing supernatant and spun at 1000 g for 45 minutes at 24° C. Cells were incubated for 24-36 h at 37° C. and then GFP+ cells were flow sorted and returned to culture with and without stimulation.
In human multiple myeloma cells, XBP-1 was induced by IL-6 treatment and implicated in the proliferation of malignant plasma cells (Wen et al., 1999). However, no role for IL-6 in upregulating XBP-1 transcripts or in mediating splicing of XBP-1 RNA in mature B cells has been described (FIG. 6A). The ability of XBP-1 to induce IL-6 production in wt and XBP-1^−/− primary B cells was tested. As described above, in vitro activated murine splenic B cells were transduced using retroviruses expressing bicistronic mRNA for XBP-1u/s, XBP-1s, XBP-1u and control GFP. After cell sorting, GFP^+ cells were stimulated with LPS and assayed for cytokine production after 72 h. In FIG. 6 panel (A) purified B cells from wt and XBP-1^−/− mice were activated in culture with LPS 10 μg/ml and F(ab′)2 anti-IgM (5 μg/ml ) for 24 hours. Retroviral transduction with GFP alone (GFP-Rv), XBP-1u/s (XBP-1 u/s GFP Rv), XBP-1s (XBP-1s GFP Rv) or XBP-1u (XBP-1u GFP Rv) of activated B cells was performed. Cells were incubated for 24-36 h at 37° C. and then GFP+ cells were flow sorted and then returned to culture with LPS stimulation (10 μg/ml) for 72 h. Cytokine production was analyzed by ELISA from culture supernatants of stimulated B cells. Experiments were done at least three times and standard deviation is shown. In panel (B) Total RNAs were prepared from stimulated B cells above and XBP-1 mRNA levels were determined by Northern blot analysis with γ-actin control

UPR target genes = assay: UPR target gene induction by Tm in MEF-dn-XBP cells (Northern blot); format: cell-based; conditions: 10 μg/ml Tm
Description: (A) The 5×ATF6GL3 reporter plasmid was cotransfected with either pCGNATF6α or XBP-u/s plasmids into MEF cells with or without the dominant negative XBP-1 expression plasmid. 100 ng DNA was used for each transfection except for pCDNA3.1, which was added to give 1 μg of DNA in total. Luciferase assays were performed as described in the legend to FIG. 18.(B) MEF and MEF-dn-XBP cells that stably express dominant negative XBP-1 protein were treated with 10 μg/ml Tm for the indicated time periods. Total RNAs were isolated and subjected to Northern blot analysis. The same blot was hybridized sequentially with BiP, CHOP, ERdj4, p58^ipk and ATF6α probes. Ethidium bromide staining of the gel before blotting is shown at the bottom as loading control.
293T and MEF cells derived from wild type and XBP-1^−/− embryos were cultured in DMEM supplemented with 10% fetal calf serum (Hyclone Laboratories). MEF-tet-off cells (Clontech) were maintained in the same media with the addition of 100 μg/ml G418 and 1 μg/ml doxycycline. XBP-1s inducible cells were obtained by transfecting MEF-tet-off cells with the TREhyg-XBP-1s plasmid and then selecting in the presence of 400 μg/ml hygromycin B. Several clones were tested for doxycycline-dependent XBP-1s expression, and one was selected for further experiments. MEF-dn-XBP cells were generated by transfecting MEF-tet-off cells with the TREhyg-dn-XBP plasmid. […]

Molecule | secretion of IL-6 compared to control cells (IL-6; XBP-1-/- B cells) | increase in IL-6 gene expression compared to controls (Northern blot) (IL-6; XBP-1s transduced cells) [fold] | secretion of IL-6 compared to control cells (IL-6; wild type B cells) | induction of CHOP by Tm (UPR target genes) | induction of ERdj4 and p58ipk by Tm (UPR target genes)
XBP-1s: vector encoding only the spliced form of murine XBP-1, a protein of 371 aa (protein) MVVVAAAPSAATAAPKVLLLSGQPASGGRALPLMVPGPRAAGSEASGTPQARKRQRLTHLSPEEKALRRKLKNRVAAQTARDRKKARMSELEQQVVDLEEENHKLQLENQLLREKTHGLVVENQELRTRLGMDTLDPDEVPEVEAKGSGVRLVAGSAESAAGAGPVVTSPEHLPMDSDTVASSDSESDILLGILDKLDPVMFFKCPSPESASLEELPEVYPEGPSSLPASLSLSVGTSSAKLEAINELIRFDHVYTKPLVLEIPSETESQTNVVVKIEEAPLSSSEEDHPEFIVSVKKEPLEDDFIPELGISNLLSSSHCLRPPSCLLDAHSDCGYEGSPSPFSDMSSPLGTDHSWEDTFANELFPQLISV | seven fold | ~5 | approximately ten-fold |  | 
dn-XBP: dominant negative XBP-1 containing the N-terminal 188 aa, lacking transactivation domain, retaining leucine zipper (protein) MVVVAAAPSAATAAPKVLLLSGQPASGGRALPLMVPGPRAAGSEASGTPQARKRQRLTHLSPEEKALRRKLKNRVAAQTARDRKKARMSELEQQVVDLEEENHKLQLENQLLREKTHGLVVENQELRTRLGMDTLDPDEVPEVEAKGSGVRLVAGSAESAAGAGPVVTSPEHLPMDSDTVASSDSESD |  |  |  | suppressed the induction of CHOP | significantly suppressed the induction of XBP-1 target genes, ERdj4 and p58^ipk
